In US20260139017A1, “COMPOSITIONS AND METHODS USING REELIN IN ALZHEIMER'S DISEASE” (The General Hospital Corporation, priority 2022, published 2026):
Entries after “also recorded” stand apart in the source; their conditions may differ.

What was measured:
[1] = system: pDAB1 (Tyr232); assay: HRECs treated 5 minutes with recombinant mini-RELN, pDAB1 western blot; assay type: cell-based, human; details: for pDAB1 levels: 5 minutes, 4 ug/mL recombinant protein
Protocol: For in vitro screening of constructs using recombinant mini-RELN on HRECs, the cells were cultured in EBM-2 media enriched with EGM-2 Single Quots (Lonza) at 37° C. and 5% CO2 and experimentally tested at passage 7. 24 h prior experiment, cells were plated on a 6-well plate at 500,000 cells/mL. Two hours before the experiment, the cells were washed with PBS to remove residual growth media and then incubated with a starving media including EBM-2, 1% GlutaMax+0.2% Normicin. Treatments was conducted using recombinant mini RELN constructs obtained from Innovagen and Recombinant Mouse Reelin Protein from R&D systems (3820-MR-025/CF). Each treatment was incubated for 5 minutes at 4 ug/mL concentration and cells were subsequently harvested in lysis buffer was applied constituted of RIPA (Cell signaling), proteases inhibitors (cOmplete™, Mini, EDTA-free Protease Inhibitor Cocktail, Roche), phosphatases inhibitors (PhosSTOP, Roche), 1 μL of proteasome inhibitor MG-132 10 mM, 1% Triton X 100. The lysates were scraped and centrifugated at 15000 rpm for 10 minutes at 4° C. Total protein levels were quantified via BCA assay. For Western Blotting, 3.5 ug protein homogenates were prepared under reducing and denaturing conditions using Laemmli buffer enriched with 10 mM DTT and 5 min boiling. Samples were electrophoretically separated in a 4-20% Gel at 90V and protein transferred to a PVDF membrane using iBlot™ 2 Dry Blotting System. The membrane was blocked using Intercept® (TBS) Blocking Buffer for 2 hours. We detected pDAB1 (Tyr232; 1:1000, rabbit, #3325 Cell signaling), and total protein staining (Licor). Antibodies were diluted using Intercept® (TBS) Blocking Buffer and incubated overnight at 4C under gentle shaking. Prior secondary antibody incubation, membranes were washed 2 times using TBS-T for 10 minutes. As secondary antibodies we used IR Dye 800n CW Goat-anti-Rabbit (925-32211, Licor) diluted 1:10000 in blocking buffer for 1 h at room temperature under gentle shaking. Membranes were washed three times with TBST-T prior IR detection using Odyssey imager. To quantify the results, each band was quantified using ImageJ and data expressed as pDABL:total protein ratio normalized to the control.

[2] = system: pDAB1; assay: Trans-nasal (MIND) delivery of mini-RELN in mice, brain pDAB1 western blot; assay type: in vivo
Excerpt: (§1) We used a MIND procure (trans nasal delivery using Minimally Invasive Nasal Depot (MIND), Padmakumar et al., J Control Release. 2021 Mar. 10; 331: 176-186) or intraperitoneal injection to administer miniRELN constructs into mice. MIND leverages the olfactory nerve to bypass the blood brain barrier. […] Using the MIND methodology provides one method of reaching the entorhinal cortex with minimal systemic exposure. […] (Jackson Laboratory) were housed under regular light/night cycle. All procedures were conducted under approved IACUC animal protocols. Prior to incision, the nasal region was shaved and cleaned using betadine and 70% alcohol and mouse subcutaneously injected with buprenorphine HCl and meloxicam (5 mg/kg). The nasal cavity was then opened using a scalped and nasal mucosa exposed using a microdrill. Once the mucosa was exposed, gel dispersion of either PBS or mini-RELN constructs (Innovagen) in 20% Pluronic (Sigma Aldrich) was subcutaneously delivered in the surgically-generated pocket. Mice were injected with meloxicam for 3 days prior euthanasia at day 4 to collect the brain tissue used for post-mortem analysis.
Western blotting was performed as follows. 20 ug protein homogenates were prepared under reducing and denaturing conditions using Laemmli buffer enriched with 10 mM DTT and 5 min boiling. Samples were electrophoretically separated in a 4-20% Gel at 90V and protein transferred to a PVDF membrane using iBlot™ 2 Dry Blotting System. The membrane was blocked using Intercept® (TBS) Blocking Buffer for 2 hours. We detected pDAB1 (Tyr232; 1:1000, rabbit, #3325 Cell signaling), and Beta actin (1:5000, mouse, #66009-1-Ig, Proteintech). Antibodies were diluted using Intercept® (TBS) Blocking Buffer and incubated overnight at 4C under gentle shaking. Prior secondary antibody incubation, membranes were washes 2 times using TBS-T for 10 minutes. As secondary antibodies we used IR Dye 800n CW Goat-anti-Rabbit (925-32211, Licor) and IR Dye 680 CW Goat-anti-Mouse (925-68070, Licor) both diluted 1:10000 in blocking buffer for 1 h at room temperature under gentle shaking. Membranes were washed three times with TBS-T prior IR detection using Odyssey imager. To quantify the results, each band was quantified using ImageJ and data expressed as pDAB1:βActin ratio normalized to the control.

[3] = system: total DAB1; assay: Overexpression of mini-RELN constructs in HRECs, total DAB1 western blot; assay type: cell-based, human; details: 24 h overexpression in HRECs
Protocol: For in vitro overexpression, the HRECs were cultured in EBM-2 media enriched with EGM-2 Single Quots (Lonza) at 37° C. and 5% CO2 and experimentally tested at passage 7. 24 h prior experiment, cells were plated on a 6-well plate at 500,000 cells/mL. The cell transfection of plasmids was done with Lipofectamine 2000 (5 μL, Life technologies) according to the manufacturer. In detail, one day prior to transfection, cells were seeded to be 70% confluent at moment of transfection. The day of transfection lipofectamine was diluted and incubated for 10 minutes at room temperature, to allow the formation of the lipophilic complex. Subsequently, each plasmid (1 μg, Invivogen) was added to the lipid complex of Lipofectamine and incubated for 10 minutes. We used OPTIMEM media (Gibco) to block the transfection after 5 hours, to allow cells to recover and facilitate replication. Prior 5 h and 24 h post-transfection, cells were imaged using 10× magnification light microscope (Olympus CKX53).
24 h post-transfection, cells were harvested for western blotting analysis. Total protein levels were quantified via BCA assay. […] We detected β-actin (1:5000, mouse, #66009-1-Ig, Proteintech), and total DAB1(1:100, SC-red tube; sc-271136 Dab1 (G-5), Santa Cruz). […] To quantify the results, each band was quantified using ImageJ and data expressed as DAB1:β-actin ratio normalized to the control. […]

[4] = system: pDAB1; assay: Immunofluorescence of cleared brain sections (Fc tag, pDAB1) after MIND delivery; assay type: in vivo, mice
Protocol: 24 or 72 hours after Mini Reelin (225S) or vehicle administration, mice were intracardially perfused with 4% PFA in PBS and brains were harvested and incubated in 4% PFA at 4° C. for 24 hours. Sagittal sections were obtained at 1 mm thickness using a stainless-steel brain matrix. The entorhinal-hippocampal section of each brain was chosen for Clarity using Binaree® Tissue Clearing™ Kit (HRTC-012) following the kit guidelines. Sections were incubated with IgG-Fc tag and pDAB1 primary antibodies for 72 h followed by secondary antibody: Alexa 488 and Alexa 647, and DAPI for 1 h. Subsequently, sections were imaged using confocal SP8 microscope for quantification. […] This is proof of effective drug delivery, target engagement, and targeted RELN signaling activation, in the hippocampal formation.

[5] = Anti human IgG-Fc ELISA of hippocampus after trans-nasal mini-RELN; assay type: in vivo, mice; details: 72 h post injection, vs PBS vehicle
Excerpt: as §1

[6] = WT male mice, 72 h post-trans-nasal delivery

Row | Molecule | efficacy at RELN signaling (pDAB1) relative to comparators ([1]; 5 minutes treatment) | pDAB1 levels [1] | pDAB1 levels in the hippocampus [2, 6] | pDAB1 levels in the midbrain [2, 6] | total DAB1 levels normalized to β-actin and lipofectamine control [3] | presence of peptide in the brain (Fc immunofluorescence) ([4]; entorhinal-hippocampal section, 24 or 72 hours after MIND) | RELN signaling measured via pDab1 (immunofluorescence) ([4]; wildtype animals, trans nasal, 24 hours, vs pluronic vehicle) | pDAB1 levels in the entorhinal cortex ([2]; Tau P301S mice, 72 h post-trans nasal delivery, vs PBS) | anti human IgG-Fc ELISA optical density in the hippocampus [5]
1 | 6xHISCR-50-R5-6-CtermH3447R (protein) MYRMQLLSCIALSLALVTNSGGHHHHHHGGEQCGAIMHGNAVTFCEPYGPRELITTGLNTTTASVLQFSIGSGSCRFSYSDPSIIVLYAKNNSADWIQLEKIRAPSNVSTIIHILYLPEDAKGENVQFQWKQENLRVGEVYEACWALGSRGGQTNATRFRLWQPYNNGKKEEIWIVDDFIIDGNNVNNPVMLLDTFDFGPREDNWFFYPGGNIGLYCPYSSKGAPEEDSAMVFVSNEVGEHSITTRDLNVNENTIIQFEINVGCSTDSSSADPVRLEFSRDFGATWHLLLPLCYHSSSHVSSLCSTEHHPSSTYYAGTMQGWRREVVHFGKLHLCGSVRFRWYQGFYPAGSQPVTWAIDNVYIGPQCEEMCNGQGSCINGTKCICDPGYSGPTCKISTKNPDFLKDDFEGQLESDRFLLMSGGKPSRKCGILSSGNNLFFNEDGLRMLMTRDLDLSHARFVQFFMRLGCGKGVPDPRSQPVLLQYSLNGGLSWSLLQEFLFSNSSNVGRYIALEIPLKARSGSTRLRWWQPSENGHFYSPWVIDQILIGGNISGNMVLEDDFTTLDSRKWLLHPGGTKMPVCGSTGDALVFIEKASTRYVVSTDVAVNEDSFLQIDFAVSCSVTDSCYAIELEYSVDLGLSWHPLVRDCLPTNVECSRYHLQRILVSDTFNKWTRITLPLPPYTRSQATRFRWHQPAPFDKQQTWAIDNVYIGDGCIDMCSGHGRCIQGNCVCDEQWGGLYCDDPETSLPTQLKDNFNRAPSSQNWLTVNGGKLSTVCGAVASGMALHFSGGCSRLLVTVDLNLTNAEFIQFYFMYGCLITPNNRNQGVLLEYSVNGGITWNLLMEIFYDQYSKPGFVNILLPPDAKEIATRFRWWQPRHDGLDQNDWAIDNVLISGSASTRKQNYMMNFSRQHGLRRFYNRRRRSLRRYP | more effective than commercially available positive control; also recorded: more effective at triggering signaling compared to full-length RELN WT and full-length RELN COLBOS | increased pDAB1 levels | increased | increased | the most active | – | – | – | –
2 | FcIgG-RAP-CTRH3447R (protein) MYRMQLLSCIALSLALVTNSAPLERKSSVECPPCPAPPVAGPSVFLFPPKPKDTLMISRTPEVTCVVVDVSHEDPEVQFNWYVDGVEVHNAKTKPREEQFNSTFRVVSVLTVVHQDWLNGKEYKCKVSNKGLPAPIEKTISKTKGQPREPQVYTLPPSREEMTKNQVSLTCLVKGFYPSDIAVEWESNGQPENNYKTTPPMLDSDGSFFLYSKLTVDKSRWQQGNVFSCSVMHEALHNHYTQKSLSLSPGARTGGGGSGGGGSMAPRRVRSFLRGLPALLLLLLFLGPWPAASHGGKYSREKNQPKPSPKRESGEEFRMEKLNQLWEKAQRLHLPPVRLAELHADLKIQERDELAWKKLKLDGLDEDGEKEARLIRNLNVILAKYGLDGKKDARQVTSNSLSGTQEDGLDDPRLEKLWHKAKTSGKFSGEELDKLWREFLHHKEKVHEYNVLLETLSRTEEIHENVISPSDLSDIKGSVLHSRHTELKEKLRSINQGLDRLRRVSHQGYSTEAEFEEPRVIDLWDLAQSANLTDKELEAFREELKHFEAKIEKHNHYQKQLEIAHEKLRHAESVGDGERVSRSREKHALLEGRTKELGYTVKKHLQDLSGRISRARHNELTGGSGGSTRKQNYMMNFSRQHGLRRFYNRRRRSLRRYP | – | increased pDAB1 levels | – | – | – | presence of the miniRELN peptide in the brain | increased levels of RELN signaling | increased | trended to be increased
